Here are results for four molecules from article PMC4649501 (2015).

T1: PDCD6 N-terminal domain peptide (Homo sapiens, Ca2+ (100 uM CaCl2))
T1 chain: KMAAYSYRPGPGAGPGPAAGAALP

B1: SCBD (Sorcin calcium-binding domain) 33-198 (protein)
chain: DPLYGYFAAVAGQDGQIDADELQRCLTQSGIAGGYKPFNLETCRLMVSMLDRDMSGTMGFNEFKELWAVLNGWRQHFISFDTDRSGTVDPQELQKALTTMGFRLSPQAVNSIAKRYSTNGKITFDDYIACCVKLRALTDSFRRRDTAQQGVVNFPYDDFIQCVMSV
B2: Sorcin (protein)
chain: MAYPGHPGAGGGYYPGGYGGAPGGPAFPGQTQDPLYGYFAAVAGQDGQIDADELQRCLTQSGIAGGYKPFNLETCRLMVSMLDRDMSGTMGFNEFKELWAVLNGWRQHFISFDTDRSGTVDPQELQKALTTMGFRLSPQAVNSIAKRYSTNGKITFDDYIACCVKLRALTDSFRRRDTAQQGVVNFPYDDFIQCVMSV
B3: SCBD (Sorcin calcium-binding domain) 33-198 (protein)
chain: B1 chain
modifications: Ca2+ (100 uM CaCl2)
B4: Sorcin (protein)
chain: B2 chain
modifications: Ca2+ (100 uM CaCl2)

PDCD6, sequence (O75340 2-191): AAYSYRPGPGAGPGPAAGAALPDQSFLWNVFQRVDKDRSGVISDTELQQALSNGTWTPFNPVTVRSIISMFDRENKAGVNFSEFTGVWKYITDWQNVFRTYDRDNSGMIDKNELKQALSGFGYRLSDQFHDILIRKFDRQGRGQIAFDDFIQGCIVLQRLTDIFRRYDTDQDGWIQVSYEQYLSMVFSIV

For one test, the target named is T1, PDCD6 N-terminal domain peptide. The test can be described thus: SPR.
B1 came in with a Kd of 6 µM.

Take B2: binding was characterised by a dissociation constant (Kd) of 5 µM.

Another test addresses PDCD6 (Homo sapiens, UniProt O75340). The test can be described thus: SPR.
Regarding B1, the affinity, expressed as Kd, was 5 µM.

B3 yielded a dissociation constant Kd of 3.5 µM.

B2 registered a Kd of 12 µM.

B4 had a Kd of 3.5 µM.
